Measured values: the supplement of paper PMC9170038

Each sequence was assayed on MS2 coat protein (assay: apparent KD of MS2 coat protein; higher = weaker reporter binding). Conditions: Eterna round: R107; input ligand: tryptophan 2.4 mM.
Experimental: (§1)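 RNA-MaP round R107: designed RNA switches with theophylline, tryptophan, arginine or FMN aptamers are transcribed on-chip within common flanks. They are titrated with SNAP-549-labelled MS2 coat protein in RNA-MaP buffer (100 mM Tris pH 7.5, 80 mM KCl, 4 mM MgCl2), without ligand or with the indicated ligand. Median apparent KD per design.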

Row | Sequence | apparent KD of MS2 coat protein [nM]
1 | GGGAAUGAACGUGAUACCAGAGAUCCGGUCUCCGUCAAUAUACAUGAGGAUCACCCAUGUCUCCCUUGGCAGCACCGUCAUCGGG [Exclusion Theophylline B GF 28] | 14.5
2 | GGGUCCGUCGGAAGGAGCGACAUGAGGAUCACCCAUGUCUCCCGUUAUGGGAGUUCUUUAGGUCAGGUAGGUCGCCGGCGGGUCC [#1 Exclusion - Arginine B Attempt #13 (Inspired by Omei)] | 119
3 | ACACAUGAGGAUCACCCAUGUGCGCUGGAAGGAGCGCAGAAUCAUGCAGGUAGGUCGCCAGUGCCCUCUACUAAAGGGAAAAGAG [Diatsoceri] | 68.5
4 | UAAUGUGAGAGAAGGAGCGGAGGUCUCGUUACAACAUGAGGAUCACCCAUGUAACGUACCGUCCAGGUAGGUCGCUCUCGGGCGC [lvacmullin] | 15.2
5 | GGAACGAUCACUUCUUUAUCUAAGGCGGAUACCAGUCCUCGGUUUGACCCUUGGCAGCCGACAACAUGAGGAUCACCCAUGUUCU [theeternabot_exclusion_MS2_Theo_A_25] | 15.6
6 | GGGCGCGAGACGGCCGCCACUACACAUGAGGAUCACCCAUGUAUGGCAACAUGAGGAUCUGCCAUUAGGACCGGGUCAGGGCCCA | 38.5

These sequences were tested on K4 kissing-loop RNA reporter (assay: apparent KD of K4 kissing-loop reporter; higher = weaker reporter binding). Conditions: Eterna round: R107; input ligand: FMN 200 uM.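 Further: bound reporter read as fluorescence of individual clusters on recovered sequencing chips by microscopy, with normalized cluster intensities fitted with a binding model.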
Experimental: as §1, with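 “a labelled K4 kissing-loop RNA reporter” for “SNAP-549-labelled MS2 coat protein”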

Row | Sequence | apparent KD of K4 kissing-loop reporter [nM]
7 | UGAUAGGACAGAAGGAGCGGAGCUGGUCAAAGACCAGCAAUACGUUAAAUAGGAGUGAUGUUCCAGGUAGGUCGCUGUCCUAUCU [ArgBX 28 #SwitchBubble #StaticStem] | 131
8 | UGUCAUUGGUCGGCCGCCACUUCAUAAAGAGUGAUGUUCUGAAAGACGGAUCGAAAGAUCUGUCGAAGGACCGGGACCGAUGACU [FiskerMod 1 - Jieux - Same State - Tryptophan B] | 1160
9 | CUCGUGGGUUUGAGAGGGCUUGUGGGAAGAUAGGAUAUCUAGGGAGGGAGAAGGAUCUAUAGAAUAUAGUGAUGUUAUAUAUGGG [#05 K4 FMN A Same State] | 164
10 | UUAGUUGAAAGUGAUACCAGACAAGUUAAGAGAAGAAAUUAAGUUGGAGUGAUGUUCCAAGUCCCUUGGCAGCACAUUGUAAUUU [Same State Theophylline B GF12] | 101
11 | AGGUCCGAGCCCGCAAGGGCUCGGACCUGUUAGGAUAUGACGUUAUUCAGAAGGGAUGGGUGGAGUGAUGUUCCACCCGCGAGGG [#2 Same State - FMN A Attempt #12 (HarryS)] | 132
12 | GGUUUAUAGGAGGAUACCAGUACAAAUAAAGUACAUUAAUAGUAGAGUGAUGUUCUAAAGUACCCUUGGCAGCUUAGAUUAAGUU [ExTheophylB.G] | 92.6
13 | GGGCGUGGCGCGGCCGCCACUGGGCCUGGGCGCUCGCUGAGUGAUGUUCGUCGGCGGUUGGGUCGUAGGACCGGGUGCUGGUUGG [BDazzled - #8 SS Tryptophan B] | 402
14 | UGAUACCAGACUGAUACCAGCGAGUGAUGUUUGCUGAUCUAAAGCAGUCAAAGACUGCCUUGCCCUUGGCAGCAGUCUGGUAUCU [TheoBX 26 #SwitchBubble #StaticStem] | 294
15 | AGAACUGUCUUGGAUACCAGUGAUGUUGGUAUCGAUGUGUGAGUGCAAAGCGUCCCACAUUGCCCUUGGCAGCUAAGACUGUUCA [Omei KL Theo B Exc A v3] | 158
16 | UGCAUGCGUAGAGUGAUGUUCUAAGAUGAUACCAGUGCGGAAACGCACCCUUGGCAGCAUCUGACUGCAUGCACGUCGAAAGACG | 718
17 | AGUGAUGUGGGAAGGAGCGCUAGUACACUUCAGUGAUGUUGAAGUGAUGAAUUAGUGUAUUGGCAGGUAGGUCGCCUAGAUGUUA [KL-XARG-B14] | 97.4
18 | UUGUUUGGUUGAGAGGUUGGGCGAAAUGAUACCAGUAUAUAAGAAUACCCUUGGCAGCAUAAGAAAGAUAUAGUGAUGUUGUAUA [SSTheophA.L] | 597
19 | GUUAUAUAAAUAAGAAAUAAAAUAAGGGAAGGAGCGCCGAGAAAGGCAGGUAGGUCGCCCAGUGAUGUUGGGAUUAAUUAAUUAG | 45
20 | UGUAUGUGAUUUGAUACCAGACCAGGUGGAGGAAUCUGAGUGAUGUUCAGGUAGGUUUGGGUCCCUUGGCAGCAAAUCGCAUACU [KL-SSTheoB18] | 173
21 | UGAUACCAGACGGCCGCCACUUCUGCAAGUCAAAGACUUGCUAAAGGAAUCGUCCAGUGAUGUUGGAGGACCGGGUCUGGUAUCU [FiskerMod 1 - Jieux - Exclusion - Tryptophan B] | 1020
22 | AAGGUUCGUGGAAGGAGCGCCCGUGCGACUCGUUCAGUAAGUGAAGUCCGAGUGAUGUUCGGGCAGGUAGGUCGCCACGGGCAAA [Usontezaon] | 196
23 | UUUAUAAUGUCGGCCGCCACUGGAUUAAUAUUUGUAUAAUCUAGUUCUAAGUGAUGUUUAGAGUCCAGGACCGGGACAUUUGUUA [#09 K4 Tryptophan B Exclusion] | 395
24 | GCUAUGGUUGGAAGGAGCGUUGAAUUGUUAGUAAGAGUGAUGUUCGAUAGUGGACAGUUGUAGCAGGUAGGUCGCCAACUAUAGC [KL-Arg B28] | 329
25 | AACCACUCGUUACAUCACUAUCGAGUGGAACGAGGACCGGUACGGCCGCCACUCGAUUAGAUGCAGUGAUGUUGCAUCUUAGAAU [KL-SSTryp-A (BrourdMod)3 #dotplot2 strengthened] | 195
26 | AAACGCUGGUGAAUAACACUAGCGAAUUCGCGAGGACCGGUACGGCCGCCACUCGCUAACUGCGAGUGAUGUUCGAUAAUAAAAU [Mat - Mod of OpenEnded 3 - D2] | 141
27 | CUGAUGCUGAUGCGGUGGCCGGUGGUCGUGCGAGGACCGGUACGGCCGCCACUCGCAUGAGUGAUGUUCAUGUGUCGUCGUCGUC [#04 K4 Tryptophan A Exclusion] | 204
28 | AGUGGACGUGUCCGGAGUGAUGUUCCGGAUACCAGACACGAAAGUGUCCCUUGGCAGCCGGAGUAAAGUUCCGGCGUUCACUAAA [#26 K4 Theophylline A Exclusion] | 109
29 | AGAGUUAUAUGAGGAUAUGAGAUAGUUAAUGAGUGAGUUAUAGUGUAGUUUGGUUAGUGAUGUUAUUUAGAAGGCGUGAGUGAUG [reefmullin] | 133
30 | AAAUCGUUCAGAAGGAGCGUGGUAUAAUCAUUAAUAUUUAUUACGAGUGAUGUUCGUAAUUCACAGGUAGGUCGCUGAUCGAUAA [JR_SSArginiB_Sub006] | 88.6
31 | GGUGUUGUUUGUGCCGCCUUCCUCGUUCCUCGAGGACCGGUACGGCCGCCACUCGAGUGAUGUUUGGGUAGCGAUCCCUGUUAGU [Bdazzled - #11 Exc. Tryptophan A] | 764
32 | AUCUAUGAGCGAGGAUAUGCAUGACGCGAGUGAUGUUCGCGAUGUGGGCGUGAUUAGUAAUAUGAAGCAGAAGGCGCACUCAUGA [Exclusion - FMW B / A] | 216

Same assay, conditions: Eterna round: R107; input ligand: arginine 13.2 mM

Row | Sequence | apparent KD of K4 kissing-loop reporter [nM]
33 | UGAUAGGACAGAAGGAGCGGAGCUGGUCAAAGACCAGCAAUACGUUAAAUAGGAGUGAUGUUCCAGGUAGGUCGCUGUCCUAUCU [ArgBX 28 #SwitchBubble #StaticStem] | 121
34 | UGUCAUUGGUCGGCCGCCACUUCAUAAAGAGUGAUGUUCUGAAAGACGGAUCGAAAGAUCUGUCGAAGGACCGGGACCGAUGACU [FiskerMod 1 - Jieux - Same State - Tryptophan B] | 1200
35 | CUCGUGGGUUUGAGAGGGCUUGUGGGAAGAUAGGAUAUCUAGGGAGGGAGAAGGAUCUAUAGAAUAUAGUGAUGUUAUAUAUGGG [#05 K4 FMN A Same State] | 131
36 | UUAGUUGAAAGUGAUACCAGACAAGUUAAGAGAAGAAAUUAAGUUGGAGUGAUGUUCCAAGUCCCUUGGCAGCACAUUGUAAUUU [Same State Theophylline B GF12] | 211
37 | AGGUCCGAGCCCGCAAGGGCUCGGACCUGUUAGGAUAUGACGUUAUUCAGAAGGGAUGGGUGGAGUGAUGUUCCACCCGCGAGGG [#2 Same State - FMN A Attempt #12 (HarryS)] | 131
38 | GGUUUAUAGGAGGAUACCAGUACAAAUAAAGUACAUUAAUAGUAGAGUGAUGUUCUAAAGUACCCUUGGCAGCUUAGAUUAAGUU [ExTheophylB.G] | 181
39 | GGGCGUGGCGCGGCCGCCACUGGGCCUGGGCGCUCGCUGAGUGAUGUUCGUCGGCGGUUGGGUCGUAGGACCGGGUGCUGGUUGG [BDazzled - #8 SS Tryptophan B] | 199
40 | UGAUACCAGACUGAUACCAGCGAGUGAUGUUUGCUGAUCUAAAGCAGUCAAAGACUGCCUUGCCCUUGGCAGCAGUCUGGUAUCU [TheoBX 26 #SwitchBubble #StaticStem] | 235
41 | AGAACUGUCUUGGAUACCAGUGAUGUUGGUAUCGAUGUGUGAGUGCAAAGCGUCCCACAUUGCCCUUGGCAGCUAAGACUGUUCA [Omei KL Theo B Exc A v3] | 134
42 | UGCAUGCGUAGAGUGAUGUUCUAAGAUGAUACCAGUGCGGAAACGCACCCUUGGCAGCAUCUGACUGCAUGCACGUCGAAAGACG | 666
43 | AGUGAUGUGGGAAGGAGCGCUAGUACACUUCAGUGAUGUUGAAGUGAUGAAUUAGUGUAUUGGCAGGUAGGUCGCCUAGAUGUUA [KL-XARG-B14] | 59.1
44 | UUGUUUGGUUGAGAGGUUGGGCGAAAUGAUACCAGUAUAUAAGAAUACCCUUGGCAGCAUAAGAAAGAUAUAGUGAUGUUGUAUA [SSTheophA.L] | 320
45 | GUUAUAUAAAUAAGAAAUAAAAUAAGGGAAGGAGCGCCGAGAAAGGCAGGUAGGUCGCCCAGUGAUGUUGGGAUUAAUUAAUUAG | 33.7
